According to US20160138049A1, “OXYGEN-TOLERANT CoA-ACETYLATING [sequence] DEHYDROGENASE CONTAINING PATHWAY FOR BIOFUEL PRODUCTION” (The Regents of the University of California, priority 2013, published 2016):

T1: Lactobacillus brevis PduP, CoA-acylating propionaldehyde dehydrogenase (PduP_L.bre, YP_795711, SEQ ID NO:47 and 48), poly-His6 tagged (Levilactobacillus brevis, UniProt Q03Q42)
T1 sequence (Q03Q42 1-477): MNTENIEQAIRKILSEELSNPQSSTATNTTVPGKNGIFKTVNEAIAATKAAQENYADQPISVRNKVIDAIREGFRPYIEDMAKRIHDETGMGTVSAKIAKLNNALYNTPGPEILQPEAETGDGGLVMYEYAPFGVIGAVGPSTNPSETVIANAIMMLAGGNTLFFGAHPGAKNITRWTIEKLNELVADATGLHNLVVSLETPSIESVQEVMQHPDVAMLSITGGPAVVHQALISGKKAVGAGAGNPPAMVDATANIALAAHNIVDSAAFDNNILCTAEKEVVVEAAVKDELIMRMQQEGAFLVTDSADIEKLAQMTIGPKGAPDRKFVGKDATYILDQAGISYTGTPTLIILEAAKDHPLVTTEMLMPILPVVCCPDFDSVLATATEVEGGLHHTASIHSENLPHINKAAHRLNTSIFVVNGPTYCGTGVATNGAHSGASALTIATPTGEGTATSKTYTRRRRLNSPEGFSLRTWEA


Key:
[1] = test system: CC(=O)SCCNC(=O)CCNC(=O)[C@H](O)C(C)(C)COP(=O)(O)OP(=O)(O)OC[C@H]1O[C@@H](n2cnc3c(N)ncnc32)[C@H](O)[C@@H]1OP(=O)(O)O; assay: purified protein, by the assay type; conditions: other: pH 7.15, 30° C., 500 μM NADH, 1 mM DTT, acyl-CoA 0.03 mM to 2 mM
Procedure: (§5) Enzyme assays were conducted by using Bio-Tek PowerWave XS microplate spectrophotometer. CoA-acylating aldehyde dehydrogenase activity was measured by the decrease of absorbance at 340 nm, corresponding to depletion of NADH. […] The addition of the acyl-CoA initiated the reaction. kcat and Km were determined by nonlinear regression fitting to Michaelis-Menten equation using graphing software Origin.

[2] = test system: CCCC(=O)SCCNC(=O)CCNC(=O)[C@H](O)C(C)(C)COP(=O)(O)OP(=O)(O)OC[C@H]1O[C@@H](n2cnc3c(N)ncnc32)[C@H](O)[C@@H]1OP(=O)(O)O; assay: purified protein, by the assay type; conditions: other: pH 7.15, 30° C., 500 μM NADH, 1 mM DTT, acyl-CoA 0.03 mM to 2 mM
Procedure: as §5

[3] = molecular target: T1, Lactobacillus brevis PduP, CoA-acylating propionaldehyde dehydrogenase (PduP_L.bre, YP_795711, SEQ ID NO:47 and 48), poly-His6 tagged; assay: Kinetic parameters of PduP (CoA-acylating aldehyde dehydrogenase), NADH depletion at 340 nm; assay type: biochemical
Procedure: (§1) Protein purification was done by using His-Spin Protein miniprep purification kit from Zymo following manufacturer's manual. Overnight culture of E. coli strain BL-21(DE3) harboring different pCDF-pdup plasmid was used to inoculate fresh 20 ml LB. The newly inoculated culture was incubated at 37° C. until OD600 nm reaches 0.6 which was then induced with 1 mM IPTG. The induced cultures were then incubated overnight in 30° C. rotary shaker to allow protein expression. The cultures were then harvested by centrifugation at 4,300×g for 20 min. The pellet was then resuspended with 1 mL of Zymo His-binding buffer and mixed with 1 mL of 0.1 mm glass beads (Biospec). The sample was then homogenated using TissueLyser II (Quiagen).
(§2) Enzyme assays were conducted by using Bio-Tek PowerWave XS microplate spectrophotometer. CoA-acylating aldehyde dehydrogenase activity was measured by the decrease of absorbance at 340 nm, corresponding to depletion of NADH. […] For determining specific activity for other chain length acyl-CoA, 500 μM was used. The mixture excluding acyl-CoA was incubated for 5 minutes at 30° C. The addition of the acyl-CoA initiated the reaction. kcat and Km were determined by nonlinear regression fitting to Michaelis-Menten equation using graphing software Origin.
(§3) To characterize these PduP homologues, plasmids harboring individual pduP genes were constructed with a poly-His6 tag (plasmids pCDF-pduP_ahyd, pCDF-pdup_kpne, pCDF-pdup_lbre, pCDF-pdup_lmon, pCDF-pdup_sent, and pCDF-pdup_pgin). PduP homologues were then purified under aerobic condition without cleaving off His tags. The activities of the enzymes were determined using acyl-CoA with different chain lengths, and the disappearance of NADH was monitored.
(§4) The efficiency of these PduP homologues were assessed.

[4] = molecular target: Klebsiella pneumoniae PduP, CoA-acylating propionaldehyde dehydrogenase (PduP_K.pne, YP_001336844, SEQ ID NO:45 and 46), poly-His6 tagged (Klebsiella pneumoniae, UniProt A0ACD7U6D7); assay: as above
Klebsiella pneumoniae PduP, CoA-acylating propionaldehyde dehydrogenase (PduP_K.pne, YP_001336844, SEQ ID NO:45 and 46), poly-His6 tagged, sequence (A0ACD7U6D7 entry or part of it): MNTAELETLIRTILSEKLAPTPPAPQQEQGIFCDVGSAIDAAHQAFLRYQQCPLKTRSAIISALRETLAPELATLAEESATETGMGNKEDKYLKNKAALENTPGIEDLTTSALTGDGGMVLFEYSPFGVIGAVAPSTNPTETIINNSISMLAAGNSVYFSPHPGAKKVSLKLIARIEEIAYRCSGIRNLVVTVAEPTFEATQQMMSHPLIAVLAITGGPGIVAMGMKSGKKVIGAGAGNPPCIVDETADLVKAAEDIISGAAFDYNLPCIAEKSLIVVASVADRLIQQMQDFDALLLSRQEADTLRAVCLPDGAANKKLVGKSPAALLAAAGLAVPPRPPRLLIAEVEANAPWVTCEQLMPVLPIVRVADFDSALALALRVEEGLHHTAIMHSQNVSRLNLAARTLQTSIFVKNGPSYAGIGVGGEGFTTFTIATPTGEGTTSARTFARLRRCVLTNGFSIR
Procedure: as §1, §2, §3, §4

[5] = molecular target: Listeria monocytigenes PduP, CoA-acylating propionaldehyde dehydrogenase (PduP_L.mon, NP_464690, SEQ ID NO:49 and 50), poly-His6 tagged (Listeria monocytogenes, UniProt Q8Y7V4); assay: as above
Procedure: as §1, §2, §3, §4

[6] = molecular target: Porphyromonas gingivalis PduP, CoA-acylating propionaldehyde dehydrogenase (PduP_P.gin, YP_001928839, SEQ ID NO:51 and 52), poly-His6 tagged (Porphyromonas gingivalis, UniProt B2RIP7); assay: as above
Procedure: as §1, §2, §3, §4

[7] = molecular target: Salmonella enterica PduP, CoA-acylating propionaldehyde dehydrogenase (PduP_S.ent, AAD39015, SEQ ID NO:33 and 34), poly-His6 tagged (Salmonella enterica, UniProt Q9XDN1); assay: as above
Procedure: as §1, §2, §3, §4

[8] = CoA-acylating aldehyde dehydrogenase (PduP) assay, butyryl-CoA reduction; assay type: biochemical; conditions: purified under aerobic condition; 500 μM NADH, 1 mM DTT, pH 7.15, 30° C.
Procedure: as §1, §2, §3, §4

[9] = Substrate chain length specificity of PduP; assay type: biochemical; conditions: acyl-CoA chain lengths C2 to C12
Procedure: FIG. 3A-B Substrate chain length specificity of CoA-acylating aldehyde dehydrogenases, PduP. A) Specific activity of different PduP (pmol min^−1 mg^−1). B) Relative activity of PduP. Specific activity was determined with substrate concentration of 1 mM acyl-CoA, 500 uM NADH, 1 mM DTT in 50 mM potassium phosphate buffer at pH 7.15 at 30° C.
as §2, §3

[10] = kcat/Km butyryl-CoA over kcat/Km acetyl-CoA
[11] = pH 7.15, 30° C., 500 μM NADH, 1 mM DTT, acyl-CoA 0.03 mM to 2 mM

Row | Molecule | Km [1] [µM] | Km [2] [µM] | Specific activity for butyryl-CoA reduction [8] [µmol/min/mg] | Acyl-CoA substrate favoured (highest specific activity) [9] | other results
1 | Porphyromonas gingivalis PduP, CoA-acylating propionaldehyde dehydrogenase (PduP_P.gin, YP_001928839, SEQ ID NO:51 and 52), poly-His6 tagged (Porphyromonas gingivalis ATCC 33277) | 75.9 ± 25.1 | 256.0 ± 40.5 | – | – | –
2 | CCCC(=O)SCCNC(=O)CCNC(=O)[C@H](O)C(C)(C)COP(=O)(O)OP(=O)(O)OC[C@H]1O[C@@H](n2cnc3c(N)ncnc32)[C@H](O)[C@@H]1OP(=O)(O)O [Butyryl-CoA, butyryl-CoA] | – | – | – | – | Ratio C4:C2 (butyryl-CoA to acetyl-CoA catalytic efficiency ratio) [3, 10]: 2; kcat [3, 11]: 3.37 ± 0.19 s⁻¹; Ratio C4:C2 (butyryl-CoA to acetyl-CoA catalytic efficiency ratio) [4, 10]: 5; kcat [4, 11]: 7.02 ± 0.64 s⁻¹; Ratio C4:C2 (butyryl-CoA to acetyl-CoA catalytic efficiency ratio) [5, 10]: 1.4; kcat [5, 11]: 11.99 ± 1.56 s⁻¹; Ratio C4:C2 (butyryl-CoA to acetyl-CoA catalytic efficiency ratio) [6, 10]: 0.6; kcat [6, 11]: 0.19 ± 0.02 s⁻¹; Ratio C4:C2 (butyryl-CoA to acetyl-CoA catalytic efficiency ratio) [7, 10]: 6.8; kcat [7, 11]: 25.38 ± 1.81 s⁻¹
3 | Salmonella enterica PduP, CoA-acylating propionaldehyde dehydrogenase (PduP_S.ent, AAD39015, SEQ ID NO:33 and 34), poly-His6 tagged (Salmonella enterica subsp. enterica serovar Typhimurium str. LT2) | 342.1 ± 94.8 | 87.0 ± 24.8 | – | – | –
4 | Listeria monocytigenes PduP, CoA-acylating propionaldehyde dehydrogenase (PduP_L.mon, NP_464690, SEQ ID NO:49 and 50), poly-His6 tagged (Listeria monocytogenes EGD-e) | 92.6 ± 20.1 | 71.7 ± 20.3 | – | – | –
5 | Klebsiella pneumoniae PduP, CoA-acylating propionaldehyde dehydrogenase (PduP_K.pne, YP_001336844, SEQ ID NO:45 and 46), poly-His6 tagged (Klebsiella pneumoniae subsp. pneumoniae NTUH-K2044) | 181.4 ± 25.1 | 56.0 ± 25.9 | – | – | –
6 | L. mon: PduP homologue from Listeria monocytigenes, NP_464690; SEQ ID NO:49 and 50 (protein, Listeria monocytogenes) MESLELEKLVKKVLLEKLAEQKGIPVKTMTKGAKSGVFDTVDEAVQAAVIAQNSYKEKSLEERRNVVKAIREALYPEIESIAARAVAETGMGNVADKILKNTLAIEKTPGVEDLYTEVATGDNGMTLYELSPYGVIGAVAPSTNPTETLICNTIGMLAAGNAVFYSPHPGAKNISLWLIEKLNTIVRESCGVDNLVVTVEKPSIQAAQEMMNHPKVPLLVITGGPGVVLQAMQSGKKVIGAGAGNPPSIVDETANIEKAAADIVDGASFDHNILCIAEKSVVAVDSIADFLMFQMEKNGALHVTNPSDIQKLEKVAVTDKGVTNKKLVGKSASEILKEAGIACDFSPRLIIVETEKTHPFATVELLMPIVPVVRVPNFEEALEVAIELEQGLHHTATMHSQNISRLNKAARDMQTSIFVKNGPSFAGLGFRGEGSTTFTIATPTGEGTTTARHFARRRRCVLTDGFSIR | – | – | 17 ± 2 | highest for propionyl-CoA reduction | –
7 | S. ent: CoA-acylating propionaldehyde dehydrogenase (PduP) from Salmonella enterica, AAD39015; SEQ ID NO:33 and 34 (protein, listed as Salmonella enterica) MNTSELETLIRTILSEQLTTPAQTPVQPQGKGIFQSVSEAIDAAHQAFLRYQQCPLKTRSAIISAMRQELTPLLAPLAEESANETGMGNKEDKFLKNKAALDNTPGVEDLTTTALTGDGGMVLFEYSPFGVIGSVAPSTNPTETIINNSISMLAAGNSIYFSPHPGAKKVSLKLISLIEEIAFRCCGIRNLVVTVAEPTFEATQQMMAHPRIAVLAITGGPGIVAMGMKSGKKVIGAGAGNPPCIVDETADLVKAAEDIINGASFDYNLPCIAEKSLIVVESVAERLVQQMQTFGALLLSPADTDKLRAVCLPEGQANKKLVGKSPSAMLEAAGIAVPAKAPRLLIALVNADDPWVTSEQLMPMLPVVKVSDFDSALALALKVEEGLHHTAIMHSQNVSRLNLAARTLQTSIFVKNGPSYAGIGVGGEGFTTFTIATPTGEGTTSARTFARSRRCVLTNGFSIR | – | – | 27 ± 14 | highest for propionyl-CoA reduction | –
8 | P. gin: PduP homologue from Porphyromonas gingivalis, YP_001928839; SEQ ID NO:51 and 52 (protein, listed as Porphyromonas gingivalis) MEIKEMVSLARKAQKEYQATHNQEAVDNICRAAAKVIYENAAILAREAVDETGMGVYEHKVAKNQGKSKGVWYNLHNKKSVGILNIDERTGMIEIAKPIGVVGAVTPTTNPIVTPMSNIIFALKTCNAIIIAPHPRSKKCSAHAVRLIKEAIAPFNVPEGMVQIIEEPSIEKTQELMGAVDVVVATGGMGMVKSAYSSGKPSFGVGAGNVQVIVDSNIDFEAAAEKIITGRAFDNGIICSGEQSIIYNEADKEAVFTAFRNHGAYFCDEAEGDRARAAIFENGAIAKDVVGQSVAFIAKKANINIPEGTRILVVEARGVGAEDVICKEKMCPVMCALSYKHFEEGVEIARTNLANEGNGHTCAIHSNNQAHIILAGSELTVSRIVVNAPSATTAGGHIQNGLAVTNTLGCGSWGNNSISENFTYKHLLNISRIAPLNSSIHIPDDKEIWEL | – | – | 0.49 ± 0.2 | dodecanoyl-CoA | –
9 | A. hyd: PduP homologue from Aeromonas hydrophila, YP_855873; SEQ ID NO:43 and 44 (protein, listed as Aeromonas hydrophila) MLSRQNARELVRNAKQAQVIMATFSQQKIDAIVKNVAEEAARHAETLAKMAAEETGFGNWQDKVLKNRFASLHVYDAIKEMKTVGIIHDDQAKKVMDVGVPLGVICALVPSTNPTSTIFYKTLIALKAGNAIIFSPHPGARQCSWKAIEIVKRAAEAAGAPAGIVDGVTQLTLEATSELMHSKDVSLILATGGEGMVRAAYASGTPTISGGPGNGPAFIERSADIHQAVKDIITSKTFDNGVICASEQSIIVERCIYDEVHRELAAQGAYFMNEDEAARMAALLLRPNGTINPKVVGKTALHLSQLAGFSVPPSTRVLVAEQTTVSHSNPYSREKLCPVLGLYVEEEWRAACHRVVELLTNEGLGHTLVIHTRNQDVIRQFSLEKPVNRILINTPAALGGIGATTNLTPALTLGCGAVGGGSSSDNVGPMNLLNIRKVGYGVRTIEELRAPIQPVAVQPASAAPTAPQPCSILDDARFSAPAPACHSADDRFAGASAEVGGEISEQNVERVIRQVLERLGK | – | – | 1.7 ± 0.6 | – | –
